Apparent KD of ternary complex formation with m3 data for 1 substance are collected here from PMC10365013.

This test has as its target avi-tagged SHOC2 (human) (UniProt Q9UQ13). Description: SPR. Background: Surface plasmon resonance follows binding to a sensor surface in real time, without labels.

Sequence of avi-tagged SHOC2 (human) (Q9UQ13 whole entry): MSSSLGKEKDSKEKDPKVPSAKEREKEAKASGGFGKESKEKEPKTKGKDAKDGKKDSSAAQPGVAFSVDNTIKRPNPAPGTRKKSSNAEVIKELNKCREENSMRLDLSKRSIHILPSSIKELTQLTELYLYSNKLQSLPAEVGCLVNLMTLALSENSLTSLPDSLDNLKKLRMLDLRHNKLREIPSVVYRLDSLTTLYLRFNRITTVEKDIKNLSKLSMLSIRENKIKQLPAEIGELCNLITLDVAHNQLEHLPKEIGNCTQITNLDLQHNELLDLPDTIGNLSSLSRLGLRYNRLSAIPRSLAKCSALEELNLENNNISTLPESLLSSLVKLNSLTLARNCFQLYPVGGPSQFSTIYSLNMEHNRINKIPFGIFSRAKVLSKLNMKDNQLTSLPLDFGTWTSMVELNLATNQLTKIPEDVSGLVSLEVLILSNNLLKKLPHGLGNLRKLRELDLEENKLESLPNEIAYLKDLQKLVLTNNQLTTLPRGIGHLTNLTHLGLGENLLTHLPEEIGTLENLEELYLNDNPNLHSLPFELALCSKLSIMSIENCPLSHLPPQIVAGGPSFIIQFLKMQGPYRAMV

As for “KRAS (1–169) (from UniProt P01116 1-169) (domain or fragment)”, the apparent KD of ternary complex formation with m3 came out at 700 nM.
